Assay results published in publication doi:10.1101/2023.05.10.540081v1.

Substrate: O=[N+]([O-])c1ccc(O[C@@H]2O[C@H](CO)[C@@H](O)[C@H](O)[C@H]2O)cc1
Assay: purified protein
Details: technical triplicates
[1] = biological replicate a of two, low protein yield

B1: β-glucosidase B (BglB) (Paenibacillus polymyxa) (protein)
chain: MSENTFIFPATFMWGTSTSSYQIEGGTDEGGRTPSIWDTFCQIPGKVIGGDCGDVACDHFHHFKEDVQLMKQLGFLHYRFSVAWPRIMPAAGIINEEGLLFYEHLLDEIELAGLIPMLTLYHWDLPQWIEDEGGWTQRETIQHFKTYASVIMDRFGERINWWNTINEPYCASILGYGTGEHAPGHENWREAFTAAHHILMCHGIASNLHKEKGLTGKIGITLNMEHVDAASERPEDVAAAIRRDGFINRWFAEPLFNGKYPEDMVEWYGTYLNGLDFVQPGDMELIQQPGDFLGINYYTRSIIRSTNDASLLQVEQVHMEEPVTDMGWEIHPESFYKLLTRIEKDFSKGLPILITENGAAMRDELVNGQIEDTGRHGYIEEHLKACHRFIEEGGQLKGYFVWSFLDNFEWAWGYSKRFGIVHINYETQERTPKQSALWFKQMMAKNGF
Protein B1 has a Km of 4.38 mM and a kcat of 6.1433 s⁻¹.

B2: β-glucosidase B (BglB) (Paenibacillus polymyxa; Y169H) (protein)
chain: MSENTFIFPATFMWGTSTSSYQIEGGTDEGGRTPSIWDTFCQIPGKVIGGDCGDVACDHFHHFKEDVQLMKQLGFLHYRFSVAWPRIMPAAGIINEEGLLFYEHLLDEIELAGLIPMLTLYHWDLPQWIEDEGGWTQRETIQHFKTYASVIMDRFGERINWWNTINEPHCASILGYGTGEHAPGHENWREAFTAAHHILMCHGIASNLHKEKGLTGKIGITLNMEHVDAASERPEDVAAAIRRDGFINRWFAEPLFNGKYPEDMVEWYGTYLNGLDFVQPGDMELIQQPGDFLGINYYTRSIIRSTNDASLLQVEQVHMEEPVTDMGWEIHPESFYKLLTRIEKDFSKGLPILITENGAAMRDELVNGQIEDTGRHGYIEEHLKACHRFIEEGGQLKGYFVWSFLDNFEWAWGYSKRFGIVHINYETQERTPKQSALWFKQMMAKNGF
For B2, the Km (biological replicate a of two) was 22.35 mM and the kcat (biological replicate a of two) was 9.8983 s⁻¹.

B3: β-glucosidase B (BglB) (Paenibacillus polymyxa; M224K) (protein)
chain: MSENTFIFPATFMWGTSTSSYQIEGGTDEGGRTPSIWDTFCQIPGKVIGGDCGDVACDHFHHFKEDVQLMKQLGFLHYRFSVAWPRIMPAAGIINEEGLLFYEHLLDEIELAGLIPMLTLYHWDLPQWIEDEGGWTQRETIQHFKTYASVIMDRFGERINWWNTINEPYCASILGYGTGEHAPGHENWREAFTAAHHILMCHGIASNLHKEKGLTGKIGITLNKEHVDAASERPEDVAAAIRRDGFINRWFAEPLFNGKYPEDMVEWYGTYLNGLDFVQPGDMELIQQPGDFLGINYYTRSIIRSTNDASLLQVEQVHMEEPVTDMGWEIHPESFYKLLTRIEKDFSKGLPILITENGAAMRDELVNGQIEDTGRHGYIEEHLKACHRFIEEGGQLKGYFVWSFLDNFEWAWGYSKRFGIVHINYETQERTPKQSALWFKQMMAKNGF
For B3, the Km [1] was 7.54 mM and the kcat [1] was 1.695 s⁻¹.

B4: β-glucosidase B (BglB) (Paenibacillus polymyxa; V314D) (protein)
chain: MSENTFIFPATFMWGTSTSSYQIEGGTDEGGRTPSIWDTFCQIPGKVIGGDCGDVACDHFHHFKEDVQLMKQLGFLHYRFSVAWPRIMPAAGIINEEGLLFYEHLLDEIELAGLIPMLTLYHWDLPQWIEDEGGWTQRETIQHFKTYASVIMDRFGERINWWNTINEPYCASILGYGTGEHAPGHENWREAFTAAHHILMCHGIASNLHKEKGLTGKIGITLNMEHVDAASERPEDVAAAIRRDGFINRWFAEPLFNGKYPEDMVEWYGTYLNGLDFVQPGDMELIQQPGDFLGINYYTRSIIRSTNDASLLQDEQVHMEEPVTDMGWEIHPESFYKLLTRIEKDFSKGLPILITENGAAMRDELVNGQIEDTGRHGYIEEHLKACHRFIEEGGQLKGYFVWSFLDNFEWAWGYSKRFGIVHINYETQERTPKQSALWFKQMMAKNGF
For B4, the Km was 6.84 mM and the kcat was 4.9167 s⁻¹.
